To fix the notation:
B1: FADS1 (parent)
chain: LNFQIEHHLFPTMPRHNYHKVAPL
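Further: lentivirally expressed fusions sorted by FACS into six bins by GFP to DsRed ratio, PSI derived from sequencing read proportions per bin multiplied by bin number.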

The data set covers variants of B1. Nature of the data set: protein stability index of a GFP-peptide fusion (GPS, HEK-293T) (PSI 1-6); higher = more stable. Conditions: c terminus: a fixed tail appended.
Take LNFQIEHHLFPTMPCHNYHKVAPL [R15C]: the protein stability index turned out to be 3.14. With LNFQIEHHLFPTMPQHNYHKVAPL [R15Q], the protein stability index is 1.33. Turning to LNFQIEHHLFPTMPNHNYHKVAPL [R15N], the protein stability index was 2.43. As for LNFQIEHHLFPTMPFHNYHKVAPL [R15F], the protein stability index stood at 2.68. With LNFQIEHHLFPTMPDHNYHKVAPL [R15D], the protein stability index was 1.98. In the case of LNFQIEHHLFPTMPHHNYHKVAPL [R15H], the protein stability index came to 1.84. As for LNFQIEHHLFPTMPWHNYHKVAPL [R15W], the protein stability index is 2.99. Turning to LNFQIEHHLFPTMPGHNYHKVAPL [R15G], the protein stability index worked out at 3.15. To LNFQIEHHLFPTMPIHNYHKVAPL [R15I] belongs 2.88. LNFQIEHHLFPTMPYHNYHKVAPL [R15Y]: the protein stability index came out at 3.31. To LNFQIEHHLFPTMPVHNYHKVAPL [R15V] belongs 2.01; to LNFQIEHHLFPTMPTHNYHKVAPL [R15T], 2.55; to LNFQIEHHLFPTMPSHNYHKVAPL [R15S], 2.95. Regarding LNFQIEHHLFPTMPAHNYHKVAPL [R15A], the protein stability index amounted to 3.26.

LNFQIEHHLFPTMPEHNYHKVAPL [R15E]: the protein stability index was found to be 1.81. To LNFQIEHHLFPTMPLHNYHKVAPL [R15L] belongs 2.42. Turning to LNFQIEHHLFPTMPKHNYHKVAPL [R15K], the protein stability index is 2.35. With LNFQIEHHLFPTMQRHNYHKVAPL [P14Q], the protein stability index is 2.54. LNFQIEHHLFPTMVRHNYHKVAPL [P14V]: the protein stability index was 2.38. Regarding LNFQIEHHLFPTMHRHNYHKVAPL [P14H], the protein stability index was 1.9. To LNFQIEHHLFPTMGRHNYHKVAPL [P14G] belongs 2.43; to LNFQIEHHLFPTMSRHNYHKVAPL [P14S], 2.71. To LNFQIEHHLFPTMLRHNYHKVAPL [P14L] belongs 1.18.

For the variant LNFQIEHHLFPTMMRHNYHKVAPL [P14M], the protein stability index was 2.44. Turning to LNFQIEHHLFPTMYRHNYHKVAPL [P14Y], the protein stability index was 3.17. With LNFQIEHHLFPTMIRHNYHKVAPL [P14I], the protein stability index came to 2.08. For LNFQIEHHLFPTMRRHNYHKVAPL [P14R], the protein stability index came to 1.76.

As for LNFQIEHHLFPTMNRHNYHKVAPL [P14N], the protein stability index was 3.36. Consider LNFQIEHHLFPTMTRHNYHKVAPL [P14T], for which the protein stability index stood at 1.9. For LNFQIEHHLFPTMPRINYHKVAPL [H16I], the protein stability index came to 2.46. To LNFQIEHHLFPTMPRNNYHKVAPL [H16N] belongs 2.2; to LNFQIEHHLFPTMPRMNYHKVAPL [H16M], 4.22; to LNFQIEHHLFPTMPRLNYHKVAPL [H16L], 1.96.

For the variant LNFQIEHHLFPTMPRRNYHKVAPL [H16R], the protein stability index stood at 2.13. As to LNFQIEHHLFPTMPRENYHKVAPL [H16E], the protein stability index is 2.52. To LNFQIEHHLFPTMPRDNYHKVAPL [H16D] belongs 3.61. As to LNFQIEHHLFPTMPRCNYHKVAPL [H16C], the protein stability index worked out at 3.19. In the case of LNFQIEHHLFPTMPRTNYHKVAPL [H16T], the protein stability index is 1.77.

Take LNFQIEHHLFPTMPRKNYHKVAPL [H16K]: the protein stability index turned out to be 1.22. To LNFQIEHHLFPTMPRVNYHKVAPL [H16V] belongs 2.36; to LNFQIEHHLFPTMPRSNYHKVAPL [H16S], 1.28. To LNFQIEHHLFPTMPRPNYHKVAPL [H16P] belongs 2.19; to LNFQIEHHLFPTMPRFNYHKVAPL [H16F], 2.12; to LNFQIEHHLFPTMPRYNYHKVAPL [H16Y], 3.52. For the variant LNFQIEHHLFPTMPRGNYHKVAPL [H16G], the protein stability index was 1.24.

With LNFQIEHHLFPTMPRHPYHKVAPL [N17P], the protein stability index turned out to be 2.71. As to LNFQIEHHLFPTMPRHYYHKVAPL [N17Y], the protein stability index worked out at 2.39.

Consider LNFQIEHHLFPTMPRHEYHKVAPL [N17E], for which the protein stability index amounted to 2.35. For LNFQIEHHLFPTMPRHTYHKVAPL [N17T], the protein stability index worked out at 2.19.

Take LNFQIEHHLFPTMPRHLYHKVAPL [N17L]: the protein stability index stood at 3.08. Consider LNFQIEHHLFPTMPRHFYHKVAPL [N17F], for which the protein stability index was 2.83. With LNFQIEHHLFPTMPRHIYHKVAPL [N17I], the protein stability index stood at 1.5. On to LNFQIEHHLFPTMPRHDYHKVAPL [N17D], for which the protein stability index is 2.28. As to LNFQIEHHLFPTMPRHQYHKVAPL [N17Q], the protein stability index turned out to be 2.33. To LNFQIEHHLFPTMPRHMYHKVAPL [N17M] belongs 1.58; to LNFQIEHHLFPTMPRHGYHKVAPL [N17G], 1.27. On to LNFQIEHHLFPTMPRHKYHKVAPL [N17K], for which the protein stability index is 1.27.

As for LNFQIEHHLFPTMPRHRYHKVAPL [N17R], the protein stability index stood at 2.48. Consider LNFQIEHHLFPTMPRHHYHKVAPL [N17H], for which the protein stability index stood at 1.81. In the case of LNFQIEHHLFPTMPRHWYHKVAPL [N17W], the protein stability index amounted to 2.84.

For LNFQIEHHLFPTMPRHCYHKVAPL [N17C], the protein stability index came out at 3.44. To LNFQIEHHLFPTMPRHAYHKVAPL [N17A] belongs 1.98; to LNFQIEHHLFPTMPRHVYHKVAPL [N17V], 1.43. As for LNFQIEHHLFPTMPRHSYHKVAPL [N17S], the protein stability index came out at 2.02. LNFQIEHHLFPTMPRHNFHKVAPL [Y18F]: the protein stability index is 2.72. On to LNFQIEHHLFPTMPRHNLHKVAPL [Y18L], for which the protein stability index was 1.69. In the case of LNFQIEHHLFPTMPRHNVHKVAPL [Y18V], the protein stability index worked out at 1.51.

For the variant LNFQIEHHLFPTMPRHNWHKVAPL [Y18W], the protein stability index came to 2.78. On to LNFQIEHHLFPTMPRHNEHKVAPL [Y18E], for which the protein stability index was 2.65. With LNFQIEHHLFPTMPRHNDHKVAPL [Y18D], the protein stability index is 1.44. In the case of LNFQIEHHLFPTMPRHNMHKVAPL [Y18M], the protein stability index stood at 2.18. For LNFQIEHHLFPTMPRHNQHKVAPL [Y18Q], the protein stability index amounted to 2.17.

In the case of LNFQIEHHLFPTMPRHNIHKVAPL [Y18I], the protein stability index was 2.23. In the case of LNFQIEHHLFPTMPRHNNHKVAPL [Y18N], the protein stability index came out at 1.81. For LNFQIEHHLFPTMPRHNPHKVAPL [Y18P], the protein stability index stood at 2.99.

Take LNFQIEHHLFPTMPRHNSHKVAPL [Y18S]: the protein stability index is 1.69.

Consider LNFQIEHHLFPTMPRHNAHKVAPL [Y18A], for which the protein stability index was determined as 2.95. Regarding LNFQIEHHLFPTMPRHNKHKVAPL [Y18K], the protein stability index worked out at 2.25. To LNFQIEHHLFPTMPRHNHHKVAPL [Y18H] belongs 1.6; to LNFQIEHHLFPTMPRHNGHKVAPL [Y18G], 1.81; to LNFQIEHHLFPTMPRHNRHKVAPL [Y18R], 1.64. As to LNFQIEHHLFPTMPRHNTHKVAPL [Y18T], the protein stability index was determined as 2.27.

LNFQIEHHLFPTMPRHNCHKVAPL [Y18C]: the protein stability index is 2.42. With LNFQIEHHLFPTMPRHNYKKVAPL [H19K], the protein stability index was 2.3. To LNFQIEHHLFPTMPRHNYLKVAPL [H19L] belongs 1.54. For the variant LNFQIEHHLFPTMPRHNYPKVAPL [H19P], the protein stability index is 3.38. For LNFQIEHHLFPTMPRHNYDKVAPL [H19D], the protein stability index was 3.43. LNFQIEHHLFPTMPRHNYEKVAPL [H19E]: the protein stability index stood at 2.25. Take LNFQIEHHLFPTMPRHNYAKVAPL [H19A]: the protein stability index came out at 2.85.

LNFQIEHHLFPTMPRHNYIKVAPL [H19I]: the protein stability index was 3.24. With LNFQIEHHLFPTMPRHNYFKVAPL [H19F], the protein stability index worked out at 1.81. Turning to LNFQIEHHLFPTMPRHNYNKVAPL [H19N], the protein stability index worked out at 2.27. On to LNFQIEHHLFPTMPRHNYMKVAPL [H19M], for which the protein stability index is 3.8. As to LNFQIEHHLFPTMPRHNYGKVAPL [H19G], the protein stability index is 3.11.

For the origin of these results see the supplement of paper PMC10567573.
